Biological target: T1, Wild-type (WT) receptor-binding domain (RBD) of SARS-CoV-2 spike protein, 330-528 aa fragment (SARS-CoV-2, wild type (Wuhan-1), UniProt P0DTC2)
T1 construct: also called WT RBD; wild-type RBD
Assay: SPR
Conditions: both partners purified

B1: SARS-CoV-2 neutralizing antibody P4A1 (full-length IgG1) (antibody, V domains shown)
VH: EVQLVESGGGLIQPGGSLRLSCAASGFIVSSNYMSWVRQAPGKGLEWVSIIYSGGSTFYADSVKGRFTISRDNSKNTLYLQMNSLRVEDTAVYYCARDLQELGSLDYWGQGTLVTVSS
VL: DIQMTQSPSSVSASVGDRVTITCRASQGISSWLAWYQQKPGKAPKLLIYAASSLQSGVPSRFSGSGSGTDFTLTISSLQPEDFATYYCQEANSFPYTFGQGTKLEIK
notes: also called P4AI; Ab
  kon: 770000 M⁻¹ s⁻¹

— article PMC9775641, “Conformational Dynamics of the Receptor-Binding Domain of the SARS-CoV-2 Spike Protein” (Biomedicines, 2022)
